# Patent US20260234222A1
# Target: SARS-CoV-2 Delta Spike antigen (SARS-CoV-2 Delta)
# Assay: ELISA, Spike antigen coated on plate
row,Substance,EC50 [nM]
1,Anti-S1 antibody ImdevimAb,0.01
2,Anti-S1 antibody DZIF-10c,6.9
